Measured values from PMC11633740, “Rapid prediction of acute thrombosis via nanoengineered immunosensors with unsupervised clustering for multiple circulating biomarkers”.

T1: C-reactive protein (CRP) (human, UniProt P02741 19-224)
T1 sequence: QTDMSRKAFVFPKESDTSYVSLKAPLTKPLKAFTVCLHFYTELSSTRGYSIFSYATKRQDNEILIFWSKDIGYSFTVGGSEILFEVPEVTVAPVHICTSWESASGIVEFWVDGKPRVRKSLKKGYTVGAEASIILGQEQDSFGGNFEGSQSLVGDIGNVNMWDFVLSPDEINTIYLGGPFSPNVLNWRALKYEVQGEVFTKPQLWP

B1: sP-selectin aptamer (ssRNA)
RNA: ACGCUCAACGAGCCAGGAACAUCGACGUCAGCAAACGCGAGCGCAACCAGUAACACC
modifications: thiol (position not given) for the electrode; no 2' modification stated

Key:
[1] = biological target: T1, C-reactive protein (CRP); test: electrochemical impedance spectroscopy; aptamer on Au NP/CNT electrode; linear 0.1-10^4 ug/ml, LOD 0.023 ug/ml; SPR (Biacore 2000, SA chip): 10 mM Hepes, 150 mM NaCl, pH 7.4, 0.005% Tween 20, 25 C; EIS: 45 min incubation (plasma workflow), PBS pH 7.4 washes, 5 mM ferri/ferrocyanide probe; conditions: protein: commercial; chain copies: 5
[2] = biological target: soluble P-selectin (sP-selectin) (human, UniProt P16109 42-771); test: electrochemical impedance spectroscopy; aptamer on Au NP/CNT electrode; linear 0.1-10^4 ng/ml, LOD 0.019 ng/ml; SPR (Biacore 2000, SA chip): 10 mM Hepes, 150 mM NaCl, pH 7.4, 0.005% Tween 20, 25 C; EIS: 45 min incubation (plasma workflow), PBS pH 7.4 washes, 5 mM ferri/ferrocyanide probe; conditions: protein: commercial
Sequence of soluble P-selectin (sP-selectin) (P16109 42-771): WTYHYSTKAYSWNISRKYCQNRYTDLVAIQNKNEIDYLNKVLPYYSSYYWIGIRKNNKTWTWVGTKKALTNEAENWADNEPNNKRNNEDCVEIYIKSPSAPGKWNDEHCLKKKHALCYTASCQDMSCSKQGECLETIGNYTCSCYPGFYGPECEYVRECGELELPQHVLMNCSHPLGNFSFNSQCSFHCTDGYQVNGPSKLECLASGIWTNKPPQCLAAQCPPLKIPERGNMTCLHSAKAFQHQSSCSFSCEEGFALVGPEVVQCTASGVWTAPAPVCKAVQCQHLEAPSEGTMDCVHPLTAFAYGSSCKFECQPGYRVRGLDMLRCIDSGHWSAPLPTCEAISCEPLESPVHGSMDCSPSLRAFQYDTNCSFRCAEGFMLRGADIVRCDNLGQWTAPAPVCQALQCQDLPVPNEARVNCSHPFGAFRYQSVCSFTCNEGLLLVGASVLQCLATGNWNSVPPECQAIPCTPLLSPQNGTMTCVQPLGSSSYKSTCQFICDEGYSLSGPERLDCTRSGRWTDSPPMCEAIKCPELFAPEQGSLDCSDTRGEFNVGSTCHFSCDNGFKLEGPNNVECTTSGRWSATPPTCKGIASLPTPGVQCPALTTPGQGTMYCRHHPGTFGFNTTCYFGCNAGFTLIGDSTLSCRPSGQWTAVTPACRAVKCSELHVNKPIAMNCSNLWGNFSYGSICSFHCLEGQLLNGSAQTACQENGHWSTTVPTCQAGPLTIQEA

Binder | binding result [1] | binding result [2]
GCCTGTAAGGTGGTCGGTGTGGCGAGTGTGTTAGGAGAGATTGC (ssDNA, thiol (position not given) for the electrode) [CRP aptamer] | binds | 
B1 |  | binds
